Experimental data as given in patent publication US20110300131A1.

T1: CD70 expressed by cancer cell lines and tumor tissues (786-O, SK-OV-3/SKOV-3, Caki-1, PANC-1 and others) (UniProt P32970)
T1 sequence (looked up): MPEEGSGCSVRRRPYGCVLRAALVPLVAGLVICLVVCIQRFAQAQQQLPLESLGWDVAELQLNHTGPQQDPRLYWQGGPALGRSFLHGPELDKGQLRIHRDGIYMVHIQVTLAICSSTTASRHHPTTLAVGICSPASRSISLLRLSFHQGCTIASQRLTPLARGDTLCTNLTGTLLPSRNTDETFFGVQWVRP

B1: h1F6vc-MMAF(4) (antibody, INN chains, looked up, V domains shown)
VH: QVQLVQSGAEVKKPGASVKVSCKASGYTFTNYGMNWVRQAPGQGLKWMGWINTYTGEPTYADAFKGRVTMTRDTSISTAYMELSRLRSDDTAVYYCARDYGDYGMDYWGQGTTVTVSS
VL: DIVMTQSPDSLAVSLGERATINCRASKSVSTSGYSFMHWYQQKPGQPPKLLIYLASNLESGVPDRFSGSGSGTDFTLTISSLQAEDVAVYYCQHSREVPWTFGQGTKVEIK
modifications: vc-MMAF, 4 drugs per antibody
B2: h1F6mc-MMAF(8) (antibody, INN chains, looked up, V domains shown)
VH: B1 VH
VL: B1 VL
modifications: mc-MMAF, 8 drugs per antibody
B3: h1F6vc-MMAE(4) (antibody, INN chains, looked up, V domains shown)
VH: B1 VH
VL: B1 VL
modifications: vc-MMAE, 4 drugs per antibody

target: T1, CD70 expressed by cancer cell lines and tumor tissues (786-O, SK-OV-3/SKOV-3, Caki-1, PANC-1 and others); experiment: cell-based or functional assay

How did the IC50, viability of SKOV-3 cells after 96 hours (Promega CelltiterGlo) turn out when h1F6mc-MMAF(4) (antibody) was run?
The IC50, viability of SKOV-3 cells after 96 hours (Promega CelltiterGlo) was 0.029 µg/mL.

B1 was tested. Which IC50, viability of SKOV-3 cells after 96 hours (Promega CelltiterGlo) did it give?
The IC50, viability of SKOV-3 cells after 96 hours (Promega CelltiterGlo) was 0.005 µg/mL.

With B2 as the molecule, how does the IC50, viability of SKOV-3 cells after 96 hours (Promega CelltiterGlo) read?
The IC50, viability of SKOV-3 cells after 96 hours (Promega CelltiterGlo) was 0.012 µg/mL.

B3 was tested. Which IC50, viability of SKOV-3 cells after 96 hours (Promega CelltiterGlo) did it give?
The IC50, viability of SKOV-3 cells after 96 hours (Promega CelltiterGlo) was 0.06 µg/mL.
